Values of other authors as cited in article PMC2660313.
pKd: −log10 of the molar value.

Molecular target: Dystrophin WW domain+EF-hand (Drosophila melanogaster) (UniProt Q9VDW6)
Sequence (Q9VDW6 2840-3106): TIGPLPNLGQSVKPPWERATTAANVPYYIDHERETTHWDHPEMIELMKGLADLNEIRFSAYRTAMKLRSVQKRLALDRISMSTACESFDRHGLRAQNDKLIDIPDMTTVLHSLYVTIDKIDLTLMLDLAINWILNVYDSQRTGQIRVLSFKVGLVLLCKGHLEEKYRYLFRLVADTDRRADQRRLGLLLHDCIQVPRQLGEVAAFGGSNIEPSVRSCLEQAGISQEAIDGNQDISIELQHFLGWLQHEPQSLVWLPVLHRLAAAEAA

In the case of “p53 peptide (negative control) (from UniProt P04637)”, the pKd is listed as 3.61.
